Assay results reported in US5316947A, “Synthetic isohirudins with improved stability” (Hoechst Aktiengesellschaft, priority 1991, dated 1994).
Numbering of substitutions follows the chain as printed. One block for each molecule: values may come before it.

Tests used:
thrombin = thrombin (Homo sapiens, UniProt P00734); experiment: Comparative Ki value determination on optimized isohirudins (method of Stone and Hofsteenge, chromogenic substrate D-HHT-Gly-Arg-pNA); type: biochemical; conditions: 25° C., pH 8.3, 0.1 M tris, 0.2 M NaCl, 0.1% Triton X-100; Ki = koff/kon; read-out: Ki(app.)
Protocol: Ki values were determined by the method of Stone and Hofsteenge (Biochemistry 25, pages 4622-4628, 1986): 0.2 ml of a 1.25 mM solution of D-HHT-Gly-Arg-pNA was equilibrated at 25° C. with 1.7 ml of 0.1 M tris, 0.2 M NaCl and 0.1% (v/v) Triton X-100 pH 8.3 and 0.1 ml of the isohirudin to be tested in 145 mM NaCl. Binding was started by adding 0.05 ml of thrombin solution. The absorption at 405 nm was recorded for a period of 10-20 min.
The reaction follows the equation:
[P]=vs *t+(vo -v5)(1-e^-k*t)/k+d,
[P]=product concentration (nitroaniline) […]
vs =reaction rate in the equilibrium state
The rate constant k was determined by non-linear regression. Extrapolation of k at various inhibitor concentrations to [1]=0 according to […]
yields the rate constants kon and koff and thus Ki =koff /kon.

[1] = Time course of byproduct formation of desulfatohirudin analogs at pH 6.5 and pH 4, 60° C. (FIG. 4 and FIG. 3); type: physicochemical; conditions: 1 mg/ml in water, pH 4 (FIG. 3) and pH 6.5 (FIG. 4), up to 96 h
Protocol: The purified isohirudins, as lyophilisate, were dissolved at 1 mg/ml in water and adjusted to pH 6.5 with 1 M […]. After sterilization by filtration, […]. Samples were taken at times t=0, 5, 24, 48, 72 and 96 h and analyzed by RP HPLC (Nucleosil®) and ion exchange chromatography (Mono®) for the content of byproducts therein. The purity at time t=x is shown relative to the purity at t=0, with in each case the less favorable value from the two analysis systems being used as bases (FIG. 4).
The purified isohirudins, as lyophilisate, were dissolved at 1 mg/ml in water and adjusted to pH 4 with 1 M acetic acid. Incubation and analyses were carried out as in Example 10 (FIG. 3).

[2] = 20-hour stability of [Ala1,Thr2] desulfatohirudin analogs at pH 7 and 60° C. (RP HPLC and anion exchange chromatography); type: physicochemical; conditions: stress conditions: 20 h, 0.5 mg/ml in 20 mM NaP, 300 mM NaCl
Protocol: The compound to be tested was dissolved in 0.5 mg/ml in 20 mM NaP, pH 7, 300 mM NaCl and incubated at 60° C. for 20 h. Samples were taken at times t=0 and t=20 h and analyzed by RP HPLC (Nucleosil®) and anionic exchange chromatography (Mono Q®). The content of newly formed byproducts was calculated.

Molecule: [Ala^1,Thr^2,Glu^33,Glu^53 ] desulfatohirudin
Ki (thrombin): 0.37 nM
Stability (byproduct formation over time) [1]: simple exchange of the aspartic acid does not have the optimal effect

Molecule: [Ile^1,Thr^2 ] desulfatohirudin [reference compound]
Ki (thrombin): 0.61 nM

B1: [Ala^1 Thr^2,Glu^33,Ala^54 ] desulfatohirudin (protein)
chain: ATYTDCTESGQNLCLCEGSNVCGQGNKCILGSEGEKNQCVTGEGTPKPQSHNDADFEEIPEEYLQ
modifications: ends and bridges not checked
Ki (thrombin): 0.35 nM

B2: [Ala^1,Thr^2,Glu^33,Gln^52,Glu^53,Glu^55 ]-desulfatohirudin (protein)
chain: B1 chain with N52Q, D53E, A54G, D55E
modifications: ends and bridges not checked
% newly formed byproducts [2]: 3.2%
Ki (thrombin): 0.3 nM
Stability (byproduct formation over time) [1]: superior stability

B4: [Ala^1,Thr^2,Glu^33,Gln^52,Glu^53,Ala^54 ]-desulfatohirudin (protein)
chain: B1 chain with N52Q, D53E
modifications: ends and bridges not checked
Ki (thrombin): 0.31 nM
Stability (byproduct formation over time) [1]: superior stability

B6: [Ala^1,Thr^2,Ala^54 ] desulfatohirudin (protein)
chain: B1 chain with E33D
modifications: ends and bridges not checked
Ki (thrombin): 0.27 nM

B8: [Ala^1,Thr^2,Glu^53 ] desulfatohirudin (protein)
chain: B1 chain with E33D, D53E, A54G
modifications: ends and bridges not checked
Ki (thrombin): 0.38 nM

Now those with a lower Ki (thrombin), led by results:

Ki (thrombin): 0.14 nM
Molecule: [Leu^1,Thr^2 ] desulfatohirudin [reference compound]

Ki (thrombin): 0.2 nM
Molecule: [Ala^1,Thr^2 ] desulfatohirudin [reference compound]
% newly formed byproducts [2]: 23.0%

Ki (thrombin): 0.22 nM
B3: [Ala^1,Thr^2,Gln^52,Glu^53,Ala^54 ] desulfatohirudin (protein)
chain: B1 chain with E33D, N52Q, D53E
modifications: ends and bridges not checked

Ki (thrombin): 0.16 nM
B5: [Ala^1,Thr^2,Glu^33 ] desulfatohirudin (protein)
chain: B1 chain with A54G
modifications: ends and bridges not checked
% newly formed byproducts [2]: 15.2%

Ki (thrombin): 0.19 nM
B7: [Ala^1,Thr^2,Gln^52,Glu^53,Glu^55 ] desulfatohirudin (protein)
chain: B1 chain with E33D, N52Q, D53E, A54G, D55E
modifications: ends and bridges not checked
% newly formed byproducts [2]: 14.6%
